Assay results from article PMC4596477, “Interaction of Myosin Phosphatase Target Subunit (MYPT1) with Myosin Phosphatase-RhoA Interacting Protein (MRIP): A Role of Glutamic Acids in the Interaction” (PLoS ONE, 2015).

How the values were obtained:
MRIP^724-878 = molecular target: T1, MRIP^724-878 (Homo sapiens, UniProt Q6WCQ1); assay: AUC interaction of MYPT1 peptides (CC, LR and LR mutants) with MRIP^724-878; format: binding; details: s*lg(s*) graphs, pH 7.4, 20°C; for main peak position of mixture with MRIP^724-878: excess mutant LR peptide for R992D/R993D and E996K, 50 μM each for others; for binding affinity toward MRIP^724-878, LR mutants: MRIP^724-878 with mutant LR peptide, 50 μM each, compared with wild-type LR
T1 construct: MRIP^724-878 (residues 724–878; CC2-CC4); made in house; host or cells: Escherichia coli BL21 (DE3)
T1 sequence (Q6WCQ1 725-879): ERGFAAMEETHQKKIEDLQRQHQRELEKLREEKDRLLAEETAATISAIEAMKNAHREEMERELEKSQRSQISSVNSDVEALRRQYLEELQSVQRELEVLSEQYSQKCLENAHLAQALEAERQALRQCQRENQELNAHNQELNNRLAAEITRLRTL
From the text: To determine the minimal MRIP-binding region of MYPT1, AUC was employed to examine interactions between sub-domains of CCLR, CC (residues 924–990) and LR (residues 991–1030) with MRIP^724-878 (Fig 4A). CC is the putative coiled coil domain and LR contains 16 upstream amino acid residues (residues 991–1006) in addition to the leucine repeat (residues 1007–1028). MRIP^724-878 was chosen because of its good fit to a single component, single-species model. […] Global fitting of the mixture to a two-component model produced a good fit and the RMSD of the fit was 0.010 (Fig 4B; Fitting of CC).
The coiled coil is a common protein-protein interaction domain. The MRIP peptides in this study have putative coiled coil domains and are α-helical. In contrast, the MYPT1 peptide, LR is not α-helical even though it contains the leucine repeat. Thus, we hypothesized that charged residues of MYPT1 might participate in the MYPT1/MRIP interaction with its leucine residues. We generated various LR peptides representing mutations in charged residues (Fig 6A) and examined their bindings to MRIP^724-878 (Fig 6B).
Fig 6 Glutamic acids within LR enhance the MRIP-binding affinity. (A) Amino acid sequences of the wild-type LR (WT-LR) and mutant LR peptides. Charged residues are in bold, the leucine repeat is in Italic, and substitution mutations are underlined. (B) Time derivative s*lg(s*) graphs: Line, MRIP^724-878 alone (50 μM); filled-in circles, original mixture of MRIP^724-878/each mutant LR peptide (50 μM each except for R992D/R993D and E996K whose mixtures consisted of excess amount of the mutant LR peptides); open circles, a three-fold dilution of the original mixture. The molar mass of the complex differs slightly from that of MRIP^724-878 dimer (37.9 kDa vs 37.4 kDa), and thus the shift in the main peak position is not easily discernable in many cases.
(§1) The cDNA fragment encoding MRIP peptides were amplified using a full-length MRIP cDNA as a template with the following primer pairs: MRIP^545-878, 5’-[…]/5’[…]; MRIP^724-878, 5’-[…]/5’-[…]; MRIP^724-837, 5’-[…]/5’-[…]. The PCR products were ligated into pCR2.1-TOPO using the TA cloning system and sequenced in both directions. The IMPACT™ (Intein Mediated Purification with an Affinity Chitin-binding Tag) Kit (New England BioLabs) was used to express peptides in bacteria to obtain tag-free peptides. The PCR amplicon encoding MRIP peptides were fused in frame to the chitin binding domain of pTYB12 vector utilizing the NdeI/EcoRI restriction sites. The expression vectors for the MYPT1 peptides, CCLR (residues 924–1030), CC (residues 924–990), and LR (residues 991–1030) were constructed as described: In the reference literature, CCLR and LR were named CCLZ and LZ, respectively. Recombinant peptides were produced in Escherichia coli strain BL21 (DE3) and purified using chitin beads according to the manufacturer's protocol. For further purification, the eluent from chitin beads was loaded on a Vydac C8 reversed phase column and subjected to HPLC using an acetonitrile gradient. Purity and identity of the peptides were confirmed by polyacrylamide gel electrophoresis (PAGE) and mass spectrometry. For the mutagenesis study of LR, the wild-type and mutant LR peptides were synthesized, purified by reverse-phase HPLC, and lyophilized to dryness at the peptide core in Boston Biomedical Research Institute.
Sedimentation velocity experiments were done on a Beckman Instruments Optima XL-I analytical ultracentrifuge equipped with Rayleigh optics. The cells were equipped with sapphire windows and 12 mm charcoal-filled Epon centerpieces. Apparent sedimentation coefficient distribution patterns were computed by the time derivative method. Peptides were dialyzed against 50 mM potassium phosphate buffer (pH 7.4) containing 100 mM KCl, and 1 mM DTT at 4°C overnight and then subjected to AUC at 50,000 rpm and 20°C. […]

[1] = molecular target: the molecule itself; assay: AUC; sedimentation velocity of each MRIP peptide alone, three-fold serial dilutions (MRIP^545-878 1.5–13.6 μM, MRIP^724-878 4.7–42.3 μM, MRIP^724-837 7.5–67.1 μM); 50 mM potassium phosphate pH 7.4, 100 mM KCl, 1 mM DTT, 50,000 rpm, 20°C; global fitting with SedAnal; constant of MRIP^724-837: dimer to monomers
CCLR = assay: AUC interaction of MRIP peptides with MYPT1 peptide CCLR (residues 924–1030); format: binding; details: equimolar mixtures (MRIP^545-878 14 μM each; MRIP^724-878 30 μM each; MRIP^724-837 67 μM each) and 3-, 9-fold dilutions, pH 7.4, 100 mM KCl, 20°C
Method: AUC was performed to examine the interactions of MRIP^545-878, MRIP^724-878, or MRIP^724-837 individually with the MYPT1 peptide (residues 924–1030) containing a putative coiled coil domain (CC) and the leucine repeat region (LR), designated as CCLR.
Fig 3 All MRIP peptides bind to the C-terminal region of MYPT1, CCLR (residues 924–1030). Concentration-normalized time derivative g(s*) graphs of the MRIP peptides by themselves and in equimolar mixtures: Lines, CCLR (30 μM); +, individual MRIP peptides by themselves (MRIP^545-878, 14 μM; MRIP^724-878, 50 μM; MRIP^724-837, 67 μM); black filled-in circles, original equimolar mixtures (MRIP^545-878, 14 μM each; MRIP^724-878, 30 μM each; MRIP^724-837, 67 μM each); open circles, 3-fold dilutions; gray filled-in circles, 9-fold dilutions.
as §1, with “For the mutagenesis study of LR, the wild-type and mutant LR peptides were synthesized, purified by reverse-phase HPLC, and lyophilized to dryness at the peptide core in Boston Biomedical Research Institute.” left out

[2] = AUC sedimentation velocity of MRIP peptides alone (molar mass, sedimentation coefficient, oligomeric state); format: physicochemical; details: for molar mass: 50 mM potassium phosphate pH 7.4, 100 mM KCl, 1 mM DTT; for concentration dependence of g(s*) curves: MRIP^545-878 1.5–13.6 μM, MRIP^724-878 4.7–42.3 μM, MRIP^724-837 7.5–67.1 μM, pH 7.4, 20°C
From the text: The RMSD of the fit was 0.008.
as §1
Sedimentation velocity experiments were done on a Beckman Instruments Optima XL-I analytical ultracentrifuge equipped with Rayleigh optics. The cells were equipped with sapphire windows and 12 mm charcoal-filled Epon centerpieces. Apparent sedimentation coefficient distribution patterns were computed by the time derivative method. Peptides were dialyzed against 50 mM potassium phosphate buffer (pH 7.4) containing 100 mM KCl, and 1 mM DTT at 4°C overnight and then subjected to AUC at 50,000 rpm and 20°C. Molar mass was computed from sedimentation velocity profiles using SedAnal, which uses a nonlinear least-squares curve fitting algorithm to fit data to solutions of the differential equation (the Lamm equation) describing sedimentation. Fits were performed on time difference data to remove the time-independent systematic baseline components. Values of s and D produced by the fitting procedure were substituted into the Svedberg equation to obtain the molar mass of the protein, M: M=RT/(1−ν¯ρ)s20,wo/D20,wo where ρ is the density of the buffer and ν¯ is the partial specific volume of the protein. Sednterp was employed to compute values of ρ and ν¯ from the amino acid sequence.

[3] = AUC sedimentation velocity, pH 7.4, 100 mM KCl, 20°C

Molecule: E996K: mutant LR peptide with same length as wild-type, substitutions for charged residues (ERRISKMEEELKMLPDLKADNQRLKDENGALIRVISKLSK)
- main peak position of mixture with MRIP^724-878 (MRIP^724-878): shifted to the right, indicating binding

Molecule: EtriA: mutant LR in which glutamic acid residues 998–1000 were replaced by alanine (ERRISEMAAALKMLPDLKADNQRLKDENGALIRVISKLSK)
- binding affinity toward MRIP^724-878, LR mutants (MRIP^724-878): significantly decreased binding affinity

Molecule: EtriQ: mutant LR in which glutamic acid residues 998–1000 were replaced by glutamine (ERRISEMQQQLKMLPDLKADNQRLKDENGALIRVISKLSK)
- binding affinity toward MRIP^724-878, LR mutants (MRIP^724-878): significantly decreased binding affinity

Molecule: LR^997-1030: mutant LR peptide shorter than LR in length (MEEELKMLPDLKADNQRLKDENGALIRVISKLSK)
- binding affinity toward MRIP^724-878, LR mutants (MRIP^724-878): decreased

Molecule: LR^1001-1030: mutant LR peptide shorter than LR in length (LKMLPDLKADNQRLKDENGALIRVISKLSK)
- binding affinity toward MRIP^724-878, LR mutants (MRIP^724-878): decreased

Molecule: LR^1007-1028: mutant LR peptide shorter than LR in length (LKADNQRLKDENGALIRVISKL)
- binding affinity toward MRIP^724-878, LR mutants (MRIP^724-878): decreased

Molecule: R992D/R993D: mutant LR peptide with same length as wild-type, substitutions for charged residues (EDDISEMEEELKMLPDLKADNQRLKDENGALIRVISKLSK)
- main peak position of mixture with MRIP^724-878 (MRIP^724-878): shifted to the right, indicating binding

B1: MRIP^724-878 (myosin phosphatase-RhoA interacting protein, residues 724–878; CC2-CC4) (domain or fragment, UniProt Q6WCQ1 724-878, looked up)
chain: CERGFAAMEETHQKKIEDLQRQHQRELEKLREEKDRLLAEETAATISAIEAMKNAHREEMERELEKSQRSQISSVNSDVEALRRQYLEELQSVQRELEVLSEQYSQKCLENAHLAQALEAERQALRQCQRENQELNAHNQELNNRLAAEITRLRT
notes: Tight homodimer in solution by AUC; the forward primer puts an NdeI ATG before the codons GAGCGAGGGTTTGCAGCAATG; source: E. coli BL21 (DE3), purified (chitin beads, C8 reversed-phase HPLC)
- stoichiometry N [1]: 2

B2: MRIP^545-878: recombinant tag-free MRIP peptide, residues 545–878; CC1-CC4 (protein)
chain: WAEFRPIQQALAQERVGGVGPADTHEPLRPEAEPGELERERARRREERRKRFGMLDATDGPGTEDAALRMEVDRSPGLPMSDLKTHNVHVEIEQRWHQVETTPLREEKQVPIAPVHLSSEDGGDRLSTHELTSLLEKELEQSQKEASDLLEQNRLLQDQLRVALGREQSAREGYVLQATCERGFAAMEETHQKKIEDLQRQHQRELEKLREEKDRLLAEETAATISAIEAMKNAHREEMERELEKSQRSQISSVNSDVEALRRQYLEELQSVQRELEVLSEQYSQKCLENAHLAQALEAERQALRQCQRENQELNAHNQELNNRLAAEITRLRT
modifications: left off: chitin-binding domain (IMPACT kit, pTYB12), N-terminal, cleaved
notes: recombinant tag-free MRIP peptide, residues 545–878; CC1-CC4
- binding to CCLR (shift in g(s*) curves) (CCLR): bind to CCLR
- molar mass ([2]; AUC sedimentation velocity, SedAnal global fit to two components (main component), 1.5–13.6 μM, 50,000 rpm, 20°C, CL 0.95, min, 38.1, max, 40.9): 39.4 kDa
- sedimentation coefficient ([2]; AUC sedimentation velocity, SedAnal global fit, two components (main component), 1.5–13.6 μM, pH 7.4, 100 mM KCl, 20°C, CL 0.95): 2.17±0.01 S
- oligomeric state in solution [2, 3]: forms a monomer in solution
- concentration dependence of g(s*) curves ([2]; AUC): no-concentration dependence and the presence of one species in solution

B3: MRIP^724-837 (myosin phosphatase-RhoA interacting protein, residues 724–837; CC2-CC3) (domain or fragment, UniProt Q6WCQ1 724-837, looked up)
chain: CERGFAAMEETHQKKIEDLQRQHQRELEKLREEKDRLLAEETAATISAIEAMKNAHREEMERELEKSQRSQISSVNSDVEALRRQYLEELQSVQRELEVLSEQYSQKCLENAHL
notes: Monomer-dimer equilibrium in solution by AUC; source: E. coli BL21 (DE3), purified (chitin beads, C8 reversed-phase HPLC)
- Kd [1]: 21 µM
- stoichiometry N [1]: 2

B4: MRIP^724-837: recombinant tag-free MRIP peptide, residues 724–837; CC2-CC3 (protein)
chain: B3 chain
modifications: left off: chitin-binding domain (IMPACT kit, pTYB12), N-terminal, cleaved
notes: recombinant tag-free MRIP peptide, residues 724–837; CC2-CC3
- binding to CCLR (shift in g(s*) curves) (CCLR): bind to CCLR
- molar mass ([2]; AUC sedimentation velocity, SedAnal global fit to monomer-dimer reaction, 7.5–67.1 μM, 20°C, CL 0.95): 13.9±0.2 kDa
- oligomeric state in solution [2, 3]: a mixture of monomer-dimer
- sedimentation coefficient, monomer ([2]; AUC, monomer-dimer model, 7.5–67.1 μM, pH 7.4, 100 mM KCl, 20°C, CL 0.95, min, 1.23, max, 1.31): 1.29 S
- sedimentation coefficient, dimer ([2]; AUC, monomer-dimer model, 7.5–67.1 μM, pH 7.4, 100 mM KCl, 20°C, CL 0.95, min, 1.88, max, 1.91): 1.90 S
- concentration dependence of g(s*) curves ([2]; AUC): concentration dependence and a reversible interaction
